Article PMC8864165, “Functional Effects of ARV-1502 Analogs Against Bacterial Hsp70 and Implications for Antimicrobial Activity” (Frontiers in Chemistry, 2022)
Square brackets hold non-standard residues; d marks the D form. Ends that are not written are not given here. Cf = 5(6)-carboxyfluorescein label; Ac6c = NC1(C(=O)O)CCCCC1

T1: E. coli DnaJ (Escherichia coli, UniProt P08622 1-376)
T1 construct: source: E. coli (DE3) Rosetta pLysS, purified (IMAC, TEV cleavage, second IMAC)
T1 sequence: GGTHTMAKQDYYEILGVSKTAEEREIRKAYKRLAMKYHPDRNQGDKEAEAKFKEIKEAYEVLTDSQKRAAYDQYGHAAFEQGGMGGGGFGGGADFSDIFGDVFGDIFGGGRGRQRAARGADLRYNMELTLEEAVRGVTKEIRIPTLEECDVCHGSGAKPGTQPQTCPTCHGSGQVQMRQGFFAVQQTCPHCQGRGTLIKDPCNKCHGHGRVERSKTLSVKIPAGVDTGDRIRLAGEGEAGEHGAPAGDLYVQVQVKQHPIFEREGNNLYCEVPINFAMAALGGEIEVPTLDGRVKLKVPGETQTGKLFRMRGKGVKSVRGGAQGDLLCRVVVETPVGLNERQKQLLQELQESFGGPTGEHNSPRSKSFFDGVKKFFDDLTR

T2: E. coli GrpE (Escherichia coli, UniProt P09372 1-197)
T2 construct: also called co-chaperone GrpE; nucleotide exchange factor GrpE; source: E. coli (DE3) Rosetta pLysS, purified (IMAC, TEV cleavage, second IMAC)
T2 sequence: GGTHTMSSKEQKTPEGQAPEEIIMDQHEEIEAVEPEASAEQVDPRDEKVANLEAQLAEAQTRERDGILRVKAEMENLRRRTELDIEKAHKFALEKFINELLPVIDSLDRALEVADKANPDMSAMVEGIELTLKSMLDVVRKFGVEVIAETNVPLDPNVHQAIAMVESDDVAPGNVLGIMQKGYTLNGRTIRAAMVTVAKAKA

T3: S. aureus GrpE (Staphylococcus aureus, UniProt P99086 1-208)
T3 construct: source: E. coli (DE3) Rosetta pLysS, purified (IMAC, TEV cleavage, second IMAC)
T3 sequence: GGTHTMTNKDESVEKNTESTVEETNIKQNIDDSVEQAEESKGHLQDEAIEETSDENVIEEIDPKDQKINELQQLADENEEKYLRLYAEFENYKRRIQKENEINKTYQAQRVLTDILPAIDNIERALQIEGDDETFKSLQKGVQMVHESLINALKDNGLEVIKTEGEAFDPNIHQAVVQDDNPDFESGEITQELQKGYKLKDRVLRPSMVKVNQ


Legend:
E. coli DnaK [1] = target: T4, E. coli DnaK (Escherichia coli, UniProt P0A6Y8 1-638); assay: cell-based or functional assay
[2] = target: T5, E. coli DnaK/DnaJ/GrpE-chaperone system (Escherichia coli, UniProt P0A6Y8 1-638; P08622 1-376; P09372 1-197); assay: fluorescence polarisation; as the direct titration, but with the full chaperone system: DnaK, DnaJ and GrpE (ratio 0.6:1.0:0.9) pre-incubated for 30 min at room temperature; settings: both partners purified
T5 construct: also called full chaperone system (E. coli); source: E. coli (DE3) Rosetta pLysS, each purified; mixed (ratio 0.6:1.0:0.9) and pre-incubated for 30 min at room temperature

[3] = target: T6, S. aureus DnaK/DnaJ/GrpE-chaperone system (Staphylococcus aureus, UniProt P99110 1-610; P63971 1-379; P99086 1-208); assay: as above; settings: both partners purified
T6 construct: also called full chaperone system (S. aureus); source: E. coli (DE3) Rosetta pLysS, each purified; mixed (ratio 0.6:1.0:0.9) and pre-incubated for 30 min at room temperature

E. coli DnaK [4] = target: T4, E. coli DnaK; assay: fluorescence polarisation; direct titration: protein serially diluted twofold in 23 steps, Cf-labeled peptide added (20 µL of 40 nmol/L to 20 µL); FP-buffer 20 mmol/L Tris-HCl, 150 mmol/L KCl, 5 mmol/L MgCl2, 1 mmol/L NaN3, 2 mmol/L DTT, pH 7.5; 2 h, 28°C, dark; settings: both partners purified
E. coli DnaJ = target: T1, E. coli DnaJ; assay: as above; settings: both partners purified
S. aureus DnaK [5] = target: T7, S. aureus DnaK (Staphylococcus aureus, UniProt P99110 1-610); assay: as above; settings: both partners purified
T7 construct: source: E. coli (DE3) Rosetta pLysS, purified (IMAC, TEV cleavage, second IMAC)

E. coli GrpE = target: T2, E. coli GrpE; assay: as above; settings: both partners purified
S. aureus GrpE = target: T3, S. aureus GrpE; assay: as above; settings: both partners purified
E. coli DnaK [6] = target: T4, E. coli DnaK; assay: fluorescence polarisation; competition screen at one concentration: unlabeled peptide 5 µmol/L with 5 µmol/L E. coli DnaK, or 35 µmol/L with 16 µmol/L S. aureus DnaK, 90 min 28°C, then Cf-ARV-1502 (10 µL of 80 nmol/L), 90 min 28°C; duplicates; FP normalized to ARV-1502; settings: both partners purified
S. aureus DnaK [7] = target: T7, S. aureus DnaK; assay: as above; settings: both partners purified

Row | Binder | Kd [2] | Kd [3] | Kd (S. aureus DnaK [5]) | binding result (E. coli DnaK [6]) | binding result (S. aureus DnaK [7]) | further results
1 | [Ac6c]RPDKPRPYLPRPRPPRPVR-NH2 (N-terminus assumed; SMILES CC(C)C[C@H](NC(=O)[C@H](Cc1ccc(O)cc1)NC(=O)[C@@H]1CCCN1C(=O)[C@H](CCCNC(=N)N)NC(=O)[C@@H]1CCCN1C(=O)[C@H](CCCCN)NC(=O)[C@H](CC(=O)O)NC(=O)[C@@H]1CCCN1C(=O)[C@H](CCCNC(=N)N)NC(=O)C1(N)CCCCC1)C(=O)N1CCC[C@H]1C(=O)N[C@@H](CCCNC(=N)N)C(=O)N1CCC[C@H]1C(=O)N[C@@H](CCCNC(=N)N)C(=O)N1CCC[C@H]1C(=O)N1CCC[C@H]1C(=O)N[C@@H](CCCNC(=N)N)C(=O)N1CCC[C@H]1C(=O)N[C@H](C(=O)N[C@@H](CCCNC(=N)N)C(N)=O)C(C)C) [ARV-1502] |  |  |  |  |  | refolding activity of the E. coli DnaK/DnaJ/GrpE-chaperone system (denatured luciferase refolding assay) at ARV-1502 concentrations ≥50 µmol/L, relative to no peptide (E. coli DnaK [1]): ~60%
2 | Cf-RPDKPRPYLPRPRPPRPVR (also called 5(6)-carboxyfluorescein-labeled ARV-1502; source: synthetic peptide, in-house (Fmoc/tBu chemistry on Rink amide resin), RP-HPLC purified) [Cf-ARV-1502] | 3.1 µM | 30.2 µM | 25.1 µM |  |  | Kd (E. coli DnaK [4]): 0.2 µM; Kd (E. coli DnaJ): ~33.4 µM; Kd (E. coli GrpE): ~213 µM; Kd (S. aureus GrpE): ~138 µM
3 | Cf-RPFFPRPYLPLPRPPRPVR (source: synthetic peptide, in-house (Fmoc/tBu chemistry on Rink amide resin), RP-HPLC purified) [Cf-peptide 102] | 0.6 µM | 1.6 µM | 1.6 µM |  |  | 
4 | [Ac6c]RPFFPRPYLPFPRPPRPVR-NH2 (source: synthetic peptide, bought: ABclonal, Inc) [peptide 103] |  |  |  | binds | binds | 
5 | [Ac6c]RPKKPRPYLPRLRPPRPVR-NH2 (N-terminus assumed; SMILES CC(C)C[C@H](NC(=O)[C@H](CCCNC(=N)N)NC(=O)[C@@H]1CCCN1C(=O)[C@H](CC(C)C)NC(=O)[C@H](Cc1ccc(O)cc1)NC(=O)[C@@H]1CCCN1C(=O)[C@H](CCCNC(=N)N)NC(=O)[C@@H]1CCCN1C(=O)[C@H](CCCCN)NC(=O)[C@H](CCCCN)NC(=O)[C@@H]1CCCN1C(=O)[C@H](CCCNC(=N)N)NC(=O)C1(N)CCCCC1)C(=O)N[C@@H](CCCNC(=N)N)C(=O)N1CCC[C@H]1C(=O)N1CCC[C@H]1C(=O)N[C@@H](CCCNC(=N)N)C(=O)N1CCC[C@H]1C(=O)N[C@H](C(=O)N[C@@H](CCCNC(=N)N)C(N)=O)C(C)C, source: synthetic peptide, bought: ABclonal, Inc) [peptide 45] |  |  |  | binds | binds | 
6 | [Ac6c]RPFFPRPYLPRKRPPRPVR-NH2 (source: synthetic peptide, bought: ABclonal, Inc) [peptide 105] |  |  |  | binds | binds | 
